Measured values reported in PMC6375729 (Molecular Cell, 2019).
Where no end group is shown, it is not given here.

Legend:
Conditions in all cases: both partners purified
[1] = target: hexa-His-tagged BRD4 extra-terminal domain (BRD4/ET) (human, UniProt O60885-1 589-676); assay: peptide or protein array; cellulose SPOT peptide arrays probed with hexa-His-tagged BRD4 domains, detected with HRP-conjugated anti-His antibody
[2] = target: BRD4 second bromodomain (BD2), D334-E460 (human, UniProt O60885-1 334-460); assay: ITC; peptide in the syringe titrated into protein in the cell; 15 °C; 50 mM HEPES pH 7.5, 150 mM NaCl; single binding site model
[3] = target: BRD4 first bromodomain (BD1), N44-E168 (human, UniProt O60885-1 44-168); assay: as above

binding result [1]	Kd [2] [µM]	stoichiometry N [2]	Kd [3] [µM]	stoichiometry N [3]	Binder
binds	–	–	–	–	PKDKAIKKFVIRNIVEAA (peptide, UniProt P62854 31-48, looked up, RPS26 residues 31-48, motif printed as KFVIK; source: synthesised on cellulose membrane (SPOT)) [RPS26 peptide region, residues 31-48 (SPOT)]
binds	–	–	–	–	KTGSPEIKLKITKTIQ (peptide, UniProt Q9BZ95 147-162, looked up, source: synthesised on cellulose membrane (SPOT)) [WHSC1L1 peptide, amino acids 147–162 (SPOT)]
–	29.4 ± 1.84	1.1 ± 0.031	70.4 ± 3	0.99 ± 0.061	LTNK(Ac)GHK(Ac)WKQ [DMTF1 K147ac/K150ac peptide]
–	7.75 ± 0.12	0.75 ± 0.029	63.6 ± 1.6	0.64 ± 0.026	RRRK(Ac)RFK(Ac)RHQ [FOXD3 K235ac/K238ac peptide]
–	25.7 ± 1.8	0.59 ± 0.018	37.8 ± 3.61	0.62 ± 0.311	HFAK(Ac)ARK(Ac)VPS [FOXN3 K426ac/K429ac peptide]
–	44.4 ± 2.89	0.64 ± 0.021	16.4 ± 0.5	0.49 ± 0.005	DGGK(Ac)SGK(Ac)APR [FOXO3 K242ac/K245ac peptide]
–	–	–	158 ± 20.1	0.58 ± 0.385	NSNK(Ac)YTK(Ac)SRG [FOXO3 K259ac/K262ac peptide]
–	44.8 ± 3.03	0.6 ± 0.021	137 ± 16.9	0.81 ± 0.082	IHCK(Ac)AGK(Ac)GRT [PTEN K125ac/K128ac peptide]
